Experimental data as given in paper PMC6531468, “Combinatorial recognition of clustered RNA elements by the multidomain RNA-binding protein IMP3”.

Tests used:
IMP3 full-length [1] = biological target: T1, IMP3 full-length (Homo sapiens, UniProt O00425 1-579); experiment: EMSA; EMSA: 10 mM Tris-HCl pH 7.5, 150 mM NaCl, 0.5 mM EDTA, 0.5 mM DTT, 0.1% NP-40, 5% glycerol, tRNA+BSA, 5 nM RNA, 30 min RT then ice; ITC/NMR: 20 mM Bis-Tris, 150 mM NaCl, 2 mM TCEP (protein buffer pH 6.5), ITC RT, NMR 25 C; settings: protein: recombinant; tags: N-terminal GST (pGEX-6P2); C-terminal His6 removed by TEV; label: 32P-UTP
IMP3 KH1-d2 = IMP3 KH1-d2 (Homo sapiens, UniProt O00425 192-355, K294D;E295D); experiment: ITC; EMSA: 10 mM Tris-HCl pH 7.5, 150 mM NaCl, 0.5 mM EDTA, 0.5 mM DTT, 0.1% NP-40, 5% glycerol, tRNA+BSA, 5 nM RNA, 30 min RT then ice; ITC/NMR: 20 mM Bis-Tris, 150 mM NaCl, 2 mM TCEP (protein buffer pH 6.5), ITC RT, NMR 25 C; settings: protein: recombinant; tags: Trx-His6 removed by TEV, leaves GAMA
IMP3 KHd1-2 = IMP3 KHd1-2 (Homo sapiens, UniProt O00425 192-355, K213D;E214D); experiment: as above; settings: protein: recombinant; tags: Trx-His6 removed by TEV, leaves GAMA
IMP3 KH1-2 WT = IMP3 KH1-2 WT (Homo sapiens, UniProt O00425 192-355); experiment: as above; settings: protein: recombinant; tags: Trx-His6 removed by TEV, leaves GAMA
IMP3 RRM1-2 = IMP3 RRM1-2 (Homo sapiens, UniProt O00425 2-156); experiment: as above; settings: protein: recombinant; tags: Trx-His6 removed by TEV; primer note: GA-MA-K3 N-terminus
IMP3 dKH1-2 = IMP3 dKH1-2 (Homo sapiens, UniProt O00425 1-579, K213D;E214D;K294D;E295D); experiment: EMSA; Hill n 1.9; EMSA: 10 mM Tris-HCl pH 7.5, 150 mM NaCl, 0.5 mM EDTA, 0.5 mM DTT, 0.1% NP-40, 5% glycerol, tRNA+BSA, 5 nM RNA, 30 min RT then ice; ITC/NMR: 20 mM Bis-Tris, 150 mM NaCl, 2 mM TCEP (protein buffer pH 6.5), ITC RT, NMR 25 C; settings: protein: recombinant; tags: GST; label: 32P-UTP
IMP3 dRRM1 = IMP3 dRRM1 (Homo sapiens, UniProt O00425 1-579, Y5A;Y39A;F41A); experiment: EMSA; Hill n 2.8; EMSA: 10 mM Tris-HCl pH 7.5, 150 mM NaCl, 0.5 mM EDTA, 0.5 mM DTT, 0.1% NP-40, 5% glycerol, tRNA+BSA, 5 nM RNA, 30 min RT then ice; ITC/NMR: 20 mM Bis-Tris, 150 mM NaCl, 2 mM TCEP (protein buffer pH 6.5), ITC RT, NMR 25 C; settings: protein: recombinant; tags: GST; label: 32P-UTP
IMP3 full-length [2] = biological target: T1, IMP3 full-length; experiment: EMSA; tRNA and BSA competitors; EMSA: 10 mM Tris-HCl pH 7.5, 150 mM NaCl, 0.5 mM EDTA, 0.5 mM DTT, 0.1% NP-40, 5% glycerol, tRNA+BSA, 5 nM RNA, 30 min RT then ice; ITC/NMR: 20 mM Bis-Tris, 150 mM NaCl, 2 mM TCEP (protein buffer pH 6.5), ITC RT, NMR 25 C; settings: protein: recombinant; tags: N-terminal GST (pGEX-6P2); C-terminal His6 removed by TEV; label: 32P-UTP

T1 sequence (O00425 whole entry): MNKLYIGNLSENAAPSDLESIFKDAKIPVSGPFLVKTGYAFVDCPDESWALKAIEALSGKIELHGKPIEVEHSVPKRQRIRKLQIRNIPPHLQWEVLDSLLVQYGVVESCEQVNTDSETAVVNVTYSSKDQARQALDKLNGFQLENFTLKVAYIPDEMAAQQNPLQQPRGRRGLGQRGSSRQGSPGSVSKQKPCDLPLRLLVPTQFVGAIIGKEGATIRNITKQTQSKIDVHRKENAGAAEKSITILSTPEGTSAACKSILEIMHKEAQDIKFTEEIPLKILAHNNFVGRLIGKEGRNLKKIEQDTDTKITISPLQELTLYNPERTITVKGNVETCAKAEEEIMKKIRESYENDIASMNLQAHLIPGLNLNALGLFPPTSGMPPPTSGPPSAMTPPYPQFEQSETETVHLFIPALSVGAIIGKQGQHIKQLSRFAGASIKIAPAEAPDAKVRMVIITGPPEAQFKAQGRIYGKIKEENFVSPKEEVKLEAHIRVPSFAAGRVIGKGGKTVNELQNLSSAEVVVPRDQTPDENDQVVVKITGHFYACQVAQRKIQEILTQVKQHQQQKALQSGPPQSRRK
Chain of IMP3 RRM1-2 (O00425 2-156): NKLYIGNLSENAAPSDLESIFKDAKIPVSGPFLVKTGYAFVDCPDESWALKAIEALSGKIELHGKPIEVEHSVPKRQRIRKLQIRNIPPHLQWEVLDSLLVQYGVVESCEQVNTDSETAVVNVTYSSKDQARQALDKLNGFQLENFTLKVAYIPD
Chain of IMP3 KH1-d2 (O00425 192-355 K294D/E295D): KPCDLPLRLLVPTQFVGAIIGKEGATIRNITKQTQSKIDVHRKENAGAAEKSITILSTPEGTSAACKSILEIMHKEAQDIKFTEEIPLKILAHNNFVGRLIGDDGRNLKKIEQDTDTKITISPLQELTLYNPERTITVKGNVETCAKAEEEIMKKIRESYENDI
Chain of IMP3 dRRM1 (O00425 whole entry Y5A/Y39A/F41A): as the sequence (O00425 whole entry) above, with Y5A, Y39A, F41A counted along it
Chain of IMP3 dKH1-2 (O00425 whole entry K213D/E214D/K294D/E295D): as the sequence (O00425 whole entry) above, with K213D, E214D, K294D, E295D counted along it
Chain of IMP3 KHd1-2 (O00425 192-355 K213D/E214D): as the sequence (O00425 192-355 K294D/E295D) above, with K22D, E23D, D103K, D104E counted along it
Chain of IMP3 KH1-2 WT (O00425 192-355): as the sequence (O00425 192-355 K294D/E295D) above, with D103K, D104E counted along it

B1: 101-mer (CA)4<-> (ssRNA)
RNA: GGGAGGGACACACACAGGAAGGCAAUUUUGGAGGAACUACAGAACACAUAUCGCAGCUAAAACACAAUUUUGGAGGAACUACAGAAUGCGGCUAUCAAGGG
For B1, the Kd (IMP3 full-length [1]) was 5.6 ± 0.8 nM.

B2: ANKRD17 exon 29 (ssRNA)
RNA: GGGUCUGUCCGAAGGCAGCUUUUUGUCACAGUUGUGAAGACAUCCAAUCGCCACACAACAACAGUCACAACCACGGCAAGCAACAACAACACUGCACCCACAAAUGCCACAUAUCCUAUGC
B2 was tested, and the Kd (IMP3 full-length [1]) was 1.6 ± 0.4 nM.

UCGGCAC (ssRNA) [GGC (CGG) 7-mer] was tested, and the Kd (IMP3 KH1-d2) was 39000 ± 8000 nM, the binding result (IMP3 KHd1-2) was “no binding” and the Kd (IMP3 KH1-2 WT) was 45000 ± 8000 nM.

AACACAA (ssRNA) [CA 7-mer]: no binding (IMP3 KH1-d2).

Work on CACACA (ssRNA) [(CA)3] yielded a Kd (IMP3 RRM1-2) of 8000 ± 3000 nM.

B3: 101-mer (ssRNA)
RNA: GGGAGGGAGGAAGGCAAUUUUGGAGGAACUACAGAACACAUAUCGCAGCUAAAACACAAUUUUGGAGGAACUACAGAAUGCGGCUAUCCACACACAAAGGG
B3 was tested, and the Kd (IMP3 dKH1-2) was 50.7 ± 1.6 nM, the Kd (IMP3 dRRM1) was 29.2 ± 1 nM and the Kd (IMP3 full-length [2]) was 3.5 ± 0.7 nM.

B4: 101-mer GGC<->CA (ssRNA)
RNA: GGGAGGGAGGAAGGCAAUUUUGGAGGAACUACAGAACACAUAUCGCAGCUAAAACGGCUAUUUGGAGGAACUACAGAAUGCACAUAUCCACACACAAAGGG
In the case of B4, the Kd (IMP3 full-length [1]) is reported as 15.4 ± 0.6 nM.

B5: 101-mer GGC->UG (ssRNA)
RNA: GGGAGGGAGGAAUGUGAUUUUGGAGGAACUACAGAACACAUAUCGCAGCUAAAACACAAUUUUGGAGGAACUACAGAAUGUGUGUAUCCACACACAAAGGG
B5 was tested, and the Kd (IMP3 full-length [1]) was 23.8 ± 0.7 nM.

In the case of GUGUGUGUGU (ssRNA) [(GU)5], the Kd (IMP3 RRM1-2) is reported as 49000 ± 3000 nM.

B6: 101-mer CA->UG (ssRNA)
RNA: GGGAGGGAGGAAGGCAAUUUUGGAGGAACUACAGAAUGUGUAUCGCAGCUAAAAUGUGAUUUUGGAGGAACUACAGAAUGCGGCUAUCUGUGUGUGAAGGG
With B6 the Kd (IMP3 full-length [1]) was 70.5 ± 3.2 nM.

B7: 101-mer GGC<->CA_UG (ssRNA)
RNA: GGGAGGGAGGAAGGCAAUUUUGGAGGAACUACAGAAUGUGUAUCGCAGCUAAAACGGCUAUUUGGAGGAACUACAGAAUGUGUGUAUCUGUGUGUGAAGGG
For B7, the Kd (IMP3 full-length [1]) was 34.9 ± 0.7 nM.

B8: 101-mer allUG (ssRNA)
RNA: GGGAGGGAGGAAUGUGAUUUUGGAGGAACUACAGAAUGUGUAUCGCAGCUAAAAUGUGAUUUUGGAGGAACUACAGAAUGUGUGUAUCUGUGUGUGAAGGG
Binder B8 has a Kd (IMP3 full-length [1]) of 61.1 ± 3.6 nM.

Binder CACACACACA (ssRNA) [(CA)5] has a Kd (IMP3 RRM1-2) of 9000 ± 2000 nM.
